Key:
YY1(F1-4) Q344A = YY1(F1-4) Q344A (human, UniProt P25490 292-414, Q344A); experiment: EMSA
YY1(F1-4) R323A = YY1(F1-4) R323A (human, UniProt P25490 292-414, R323A); experiment: EMSA
YY1(F1-4) H325A = YY1(F1-4) H325A (human, UniProt P25490 292-414, H325A); experiment: EMSA
YY1(F1-4) = YY1(F1-4) (human, UniProt P25490 292-414); experiment: MST
YY1(mut5) = YY1(mut5) (human, UniProt P25490 292-414, V324A;H325A;V326A;L340A;Q344A); experiment: MST
GST-YY1(F1-4) = GST-YY1(F1-4) (human, UniProt P25490 292-414); experiment: competition
Chain of GST-YY1(F1-4) (P25490 292-414): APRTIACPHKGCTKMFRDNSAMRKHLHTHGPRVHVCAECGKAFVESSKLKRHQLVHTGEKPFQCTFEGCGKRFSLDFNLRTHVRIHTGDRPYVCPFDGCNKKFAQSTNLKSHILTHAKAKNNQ

Chain of YY1(F1-4) (P25490 292-414): as above
Chain of YY1(F1-4) Q344A (P25490 292-414 Q344A): as the sequence (P25490 292-414) above, with Q53A counted along it
Chain of YY1(F1-4) H325A (P25490 292-414 H325A): as the sequence (P25490 292-414) above, with H34A counted along it
Chain of YY1(F1-4) R323A (P25490 292-414 R323A): as the sequence (P25490 292-414) above, with R32A counted along it
Chain of YY1(mut5) (P25490 292-414 V324A/H325A/V326A/L340A/Q344A): as the sequence (P25490 292-414) above, with V33A, H34A, V35A, L49A, Q53A counted along it

B1: m2 RNA (ssRNA)
RNA: AGGCGAUGGUGAGC
B1: binds (YY1(F1-4) Q344A); binds (YY1(F1-4) R323A); binds (YY1(F1-4) H325A). It also gave a Kd (YY1(F1-4)) of 3.8 ± 0.6 µM and a Kd (YY1(mut5)) of 31 ± 9 µM.

B2: AAV P5 dsDNA (dsDNA)
DNA 1: AGGGTCTCCATTTTGAAGCG
DNA 2: CGCTTCAAAATGGAGACCCT
B2: binds (GST-YY1(F1-4)).

B3: poly(A) RNA (ssRNA)
RNA: AAAAAAAAAAAAAA
B3 showed a Kd (YY1(F1-4)) of 4.2 ± 0.5 µM.

Reference: paper PMC5100589
